Tests used:
[1] = biological target: T1, Singapore/2008 (serotype II EDIII); experiment: ELISA; row Singapore/2008, serotype II, genotype Cosmopolitan
T1 construct: also called ED3-DV2/Sing08; DENV-2 Sing

[2] = biological target: dengue virus DENV-1 strain Hawaii/1944 (live virus; E protein) (dengue virus serotype DENV-1, strain …); experiment: cell-based or functional assay
[3] = biological target: dengue virus DENV-4 strain Mexico/1997 (BC287/97) (live virus; E protein) (dengue virus serotype DENV-4, strain …); experiment: cell-based or functional assay
[4] = biological target: dengue virus DENV-2 strain New Guinea/1944 (NGC) (live virus; E protein) (dengue virus serotype DENV-2, strain …, UniProt P14340 281-775); experiment: cell-based or functional assay
[5] = biological target: dengue virus DENV-3 strain Philippines/1956 (H87) (live virus; E protein) (dengue virus serotype DENV-3, strain …, UniProt P27915 281-773); experiment: cell-based or functional assay
[6] = biological target: T2, Philippines/1956 (H87)* (serotype III EDIII) (Dengue virus 3); experiment: SPR; row Philippines/1956 (H87)*, serotype III, genotype I
T2 construct: isolated EDIII protein

[7] = biological target: T3, Malaysia/2005 (serotype I EDIII)
T3 construct: also called ED3-DV1/Malaysia05
T3 E protein domain III (EDIII): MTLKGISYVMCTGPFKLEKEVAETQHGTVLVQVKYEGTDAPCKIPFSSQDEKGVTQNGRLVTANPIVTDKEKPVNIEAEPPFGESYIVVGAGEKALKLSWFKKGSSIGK

[8] = biological target: T4, Brazil/2011 (serotype IV EDIII); experiment: SPR; row Brazil/2011, serotype IV, genotype I
T4 E protein domain III (EDIII): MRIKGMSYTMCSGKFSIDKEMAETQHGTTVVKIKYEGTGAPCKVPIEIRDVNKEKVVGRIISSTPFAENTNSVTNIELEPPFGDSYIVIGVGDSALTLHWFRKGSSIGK

[9] = biological target: T5, EDIII-DV2 (E protein domain III of dengue virus serotype DV-2) (dengue virus serotype DV-2, UniProt P14337 573-677)
T5 construct: also called DENV-2; EDIII of DV-2
T5 sequence (P14337 573-677, tags left off): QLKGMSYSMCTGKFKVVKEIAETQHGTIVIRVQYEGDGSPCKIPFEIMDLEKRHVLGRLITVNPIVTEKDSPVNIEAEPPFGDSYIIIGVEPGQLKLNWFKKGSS

[10] = biological target: T6, New Guinea/1944 (NGC)* (serotype II EDIII) (Dengue virus 2); experiment: SPR; row New Guinea/1944 (NGC)*, serotype II, genotype Asian I
T6 construct: isolated EDIII protein; also called EDIII of DENV-2 NGC

[11] = biological target: T7, EDIII-DV4 (E protein domain III of dengue virus serotype DV-4) (dengue virus serotype DV-4, UniProt P09866 572-679)
T7 construct: also called DENV-4
T7 sequence (P09866 572-679, tags left off): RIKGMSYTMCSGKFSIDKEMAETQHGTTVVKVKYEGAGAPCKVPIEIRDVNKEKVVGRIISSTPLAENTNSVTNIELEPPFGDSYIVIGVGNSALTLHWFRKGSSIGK

[12] = biological target: T8, Venezuela/2007 (serotype II EDIII); experiment: SPR; row Venezuela/2007, serotype II, genotype SE-Asian/American
T8 construct: also called ED3-DV2/Venezuela07
T8 E protein domain III (EDIII): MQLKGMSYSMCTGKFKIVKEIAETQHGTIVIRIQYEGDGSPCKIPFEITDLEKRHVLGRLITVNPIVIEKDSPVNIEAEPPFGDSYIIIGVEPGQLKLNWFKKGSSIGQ

B1: antibody D88 (antibody, V domains shown)
VH: QVQLVQSGAEVKKPGASVKVSCKAGFNIKDVYMSWVRQAPEQGLEWMGRIDPENGDTKYDPKLQGRVTMTADTSTNTAYMELRSLRSDDTAVYYCARGWEGFAYWGQGTLVTVSS
VL: DIVMTQSPASLAVSLGERATISCRASENVDKYGNSFMHWYQQKPGQPPKLLIYRASELQWGVPDRFSGSGSGTDFTLTISSLQAEDVAVYYCQRSNEVPWTFGQGTKLEIK
notes: also called mAb D88
B1 was tested, and the Kd [1] was less than 0.1 nM, the “EC50, FRNT” value [2] was less than 1 µg/mL and the “EC50, FRNT” value [3] was less than 1 µg/mL. For the same binder, the “EC50, FRNT” value [4] was less than 1 µg/mL, the “EC50, FRNT” value [5] was less than 1 µg/mL and the Kd [6] was 1 nM. The Kd [7] was less than 0.1 nM, the Kd [8] was 7.9 nM and the Kd [9] was 0.016 nM. It also gave a Kd [10] of 0.016 nM, a Kd [11] of 3.12 nM and a Kd [12] of 0.029 nM.

— US20240425569A1 (VISTERRA, published 2024)
